Here are results for one substance from patent US20050176083A1.

The target in assay [1] is wild-type human activated protein C (recombinant, thrombin-activated) (human) (UniProt P04070). The experiment in a line: cell-based or functional assay.
Assay [2] addresses APC mutant QGNSEDY (ALL) (human) (UniProt P04070). The experiment in a line: cell-based or functional assay.

In the case of “human protein S (from UniProt P07225 42-676)”, in assay [1], the APTT clotting time in protein S deficient human plasma with APC, highest protein S concentration is 150 s and the APTT clotting time in protein S deficient human plasma with APC, in absence of protein S was 100 s. In assay [2], this substance had an APTT clotting time in protein S deficient human plasma with APC, in absence of protein S of 160 s and an APTT clotting time in protein S deficient human plasma with APC, protein S added of 350 s.
